Results published in article PMC10397247.

Key:
Test in all cases: two-hybrid library CCNG1;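 note: natural log of median RNA to DNA barcode read ratio; higher means stronger binding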
4H2585-bN = molecular target: T1, 4H2585-bN
T1 chain: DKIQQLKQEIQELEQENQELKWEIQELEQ

4H3297-bN = molecular target: T2, 4H3297-bN
T2 chain: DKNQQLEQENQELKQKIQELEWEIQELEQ

4H2931-bN = molecular target: T3, 4H2931-bN
T3 chain: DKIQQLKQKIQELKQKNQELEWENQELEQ

4H2518-bN = molecular target: T4, 4H2518-bN
T4 chain: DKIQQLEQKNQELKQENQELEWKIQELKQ

4H3381-bN = molecular target: T5, 4H3381-bN
T5 chain: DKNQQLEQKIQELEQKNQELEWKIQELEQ

4H3041-bN = molecular target: T6, 4H3041-bN
T6 chain: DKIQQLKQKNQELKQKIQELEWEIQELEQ

4H3364-bN = molecular target: T7, 4H3364-bN
T7 chain: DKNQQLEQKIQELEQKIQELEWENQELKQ

4H2859-bN = molecular target: T8, 4H2859-bN
T8 chain: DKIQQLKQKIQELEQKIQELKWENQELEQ

4H349-bN = molecular target: T9, 4H349-bN
T9 chain: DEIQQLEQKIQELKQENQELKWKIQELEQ

4H2253-bN = molecular target: T10, 4H2253-bN
T10 chain: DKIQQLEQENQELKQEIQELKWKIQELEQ

4H2760-bN = molecular target: T11, 4H2760-bN
T11 chain: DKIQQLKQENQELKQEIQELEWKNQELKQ

4H56-bN = molecular target: T12, 4H56-bN
T12 chain: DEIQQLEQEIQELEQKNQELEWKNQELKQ

4H730-bN = molecular target: T13, 4H730-bN
T13 chain: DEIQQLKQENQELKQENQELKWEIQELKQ

4H235-bN = molecular target: T14, 4H235-bN
T14 chain: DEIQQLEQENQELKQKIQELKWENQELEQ

4H2444-bN = molecular target: T15, 4H2444-bN
T15 chain: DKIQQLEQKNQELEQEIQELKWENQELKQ

4H932-bN = molecular target: T16, 4H932-bN
T16 chain: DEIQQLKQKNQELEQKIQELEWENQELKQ

4H949-bN = molecular target: T17, 4H949-bN
T17 chain: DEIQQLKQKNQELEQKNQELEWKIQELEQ

4H2233-bN = molecular target: T18, 4H2233-bN
T18 chain: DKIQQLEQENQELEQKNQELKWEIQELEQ

4H796-bN = molecular target: T19, 4H796-bN
T19 chain: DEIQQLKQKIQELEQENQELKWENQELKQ

4H264-bN = molecular target: T20, 4H264-bN
T20 chain: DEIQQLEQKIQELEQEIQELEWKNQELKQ

O13-bS = molecular target: T21, O13-bS
T21 chain: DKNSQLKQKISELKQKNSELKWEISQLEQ

O3-bS = molecular target: T22, O3-bS
T22 chain: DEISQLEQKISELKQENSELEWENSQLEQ

O15-bS = molecular target: T23, O15-bS
T23 chain: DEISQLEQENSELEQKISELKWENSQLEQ

O9-bS = molecular target: T24, O9-bS
T24 chain: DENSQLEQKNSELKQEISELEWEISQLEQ

O14-bS = molecular target: T25, O14-bS
T25 chain: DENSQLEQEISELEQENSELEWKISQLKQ

O5-bS = molecular target: T26, O5-bS
T26 chain: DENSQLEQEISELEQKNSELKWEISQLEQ

O6-bS = molecular target: T27, O6-bS
T27 chain: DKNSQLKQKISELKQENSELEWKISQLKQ

O16-bS = molecular target: T28, O16-bS
T28 chain: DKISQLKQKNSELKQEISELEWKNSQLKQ

O8-bS = molecular target: T29, O8-bS
T29 chain: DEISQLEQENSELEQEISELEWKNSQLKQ

O7-bS = molecular target: T30, O7-bS
T30 chain: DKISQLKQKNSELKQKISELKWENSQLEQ

O2-bS = molecular target: T31, O2-bS
T31 chain: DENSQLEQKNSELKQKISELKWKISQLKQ

O4-bS = molecular target: T32, O4-bS
T32 chain: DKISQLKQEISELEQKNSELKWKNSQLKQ

O12-bS = molecular target: T33, O12-bS
T33 chain: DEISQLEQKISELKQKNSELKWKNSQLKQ

B1: 4H2233-bN (peptide)
chain: DKIQQLEQENQELEQKNQELKWEIQELEQ
Which results are given for B1?
interaction score (4H2585-bN): -2.3; interaction score (4H3297-bN): -1.34; interaction score (4H2931-bN): -0.485; interaction score (4H2518-bN): 1.97; interaction score (4H3381-bN): -0.889; interaction score (4H3041-bN): -1.98; interaction score (4H3364-bN): -0.324; interaction score (4H2859-bN): -0.431; interaction score (4H349-bN): -0.452; interaction score (4H2253-bN): -0.322; interaction score (4H2760-bN): -0.863; interaction score (4H56-bN): -0.577; interaction score (4H730-bN): -0.539; interaction score (4H235-bN): -0.762; interaction score (4H2444-bN): -0.713; interaction score (4H932-bN): -1.19; interaction score (4H949-bN): -1.36; interaction score (4H2233-bN): -1.12; interaction score (4H796-bN): -0.624; interaction score (4H264-bN): -0.163

B2: O12-bS (peptide)
chain: DEISQLEQKISELKQKNSELKWKNSQLKQ
Which interaction score (O13-bS) does the source give for B2 here?
The interaction score was -2.21.

What about the interaction score (O3-bS) of the same binder?
Its interaction score is 0.395.

And the interaction score (O15-bS)?
Its interaction score is -0.445.

And the interaction score (O9-bS)?
Its interaction score is -0.617.

What about the interaction score (O14-bS) of the same binder?
Its interaction score is -2.32.

What about the interaction score (O5-bS) of the same binder?
The interaction score was -1.66.

What about the interaction score (O6-bS) of the same binder?
Its interaction score is -0.702.

What about the interaction score (O16-bS) of the same binder?
The interaction score was -1.04.

What about the interaction score (O8-bS) of the same binder?
The interaction score was -0.862.

And the interaction score (O7-bS)?
Its interaction score is -0.726.

And the interaction score (O2-bS)?
The interaction score was -0.108.

What about the interaction score (O4-bS) of the same binder?
Its interaction score is -0.445.

And the interaction score (O12-bS)?
The interaction score was -0.402.
